Tests used:
[1] = system: HeLa Kyoto; assay: solubility change mitosis vs G1/S (difference of NP-40 vs SDS log2 ratios) (log2 ratio difference); higher = more soluble in mitosis
[2] = system: HeLa Kyoto; assay: solubility in G1/S (NP-40 vs SDS abundance) (log2 ratio); higher = more soluble; details: cell cycle stage: G1/S
[3] = system: HeLa Kyoto; assay: thermal stability score vs G1/S (z-score of summed log2 fold changes over temperatures); higher = more thermally stable than in G1/S
[4] = system: HeLa Kyoto; assay: melting temperature (median over replicates), in situ; higher = more thermally stable
[5] = cell cycle stage: early G1 (4.5 h after nocodazole release)
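Wherever melting temperature (median over replicates), in situ is given: HeLa Kyoto cells synchronized by double thymidine or nocodazole block, proteins quantified by TMT10plex mass spectrometry, three independent biological replicates.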
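Wherever solubility change mitosis vs G1/S (difference of NP-40 vs SDS log2 ratios) is given: synchronized HeLa Kyoto cells (double thymidine block for G1/S, nocodazole release for mitosis), protein amounts in NP-40 versus SDS lysates quantified by mass spectrometry, three biological replicates.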
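Wherever solubility in G1/S (NP-40 vs SDS abundance) is given: HeLa Kyoto cells arrested at G1/S by double thymidine block, proteins quantified by TMT10plex mass spectrometry in mild NP-40 versus SDS extracts, three biological replicates.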
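Wherever thermal stability score vs G1/S (z-score of summed log2 fold changes over temperatures) is given: synchronized HeLa Kyoto cells, proteins quantified by TMT10plex mass spectrometry, three biological replicates, mitosis taken 0.5 h after nocodazole release, G1/S directly after double thymidine block.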

MPFPFGKSHKSPADIVKNLKESMAVLEKQDISDKKAEKATEEVSKNLVAMKEILYGTNEKEPQTEAVAQLAQELYNSGLLSTLVADLQLIDFEGKKDVAQIFNNILRRQIGTRTPTVEYICTQQNILFMLLKGYESPEIALNCGIMLRECIRHEPLAKIILWSEQFYDFFRYVEMSTFDIASDAFATFKDLLTRHKLLSAEFLEQHYDRFFSEYEKLLHSENYVTKRQSLKLLGELLLDRHNFTIMTKYISKPENLKLMMNLLRDKSRNIQFEAFHVFKVFVANPNKTQPILDILLKNQAKLIEFLSKFQNDRTEDEQFNDEKTYLVKQIRDLKRPAQQEA [CAB39]
solubility change mitosis (log2) [1]: -0.178 | solubility in G1/S (log2) [2]: 0.0309 | thermal stability score [3, 5]: 0.362 | thermal stability score ([3]; cell cycle stage: mitosis): 2.14 | melting temperature ([4]; cell cycle stage: G1/S): 54.3 °C | melting temperature ([4]; cell cycle stage: mitosis): 55.4 °C

MDLSGVKKKSLLGVKENNKKSSTRAPSPTKRKDRSDEKSKDRSKDKGATKESSEKDRGRDKTRKRRSASSGSSSTRSRSSSTSSSGSSTSTGSSSGSSSSSASSRSGSSSTSRSSSSSSSSGSPSPSRRRHDNRRRSRSKSKPPKRDEKERKRRSPSPKPTKVHIGRLTRNVTKDHIMEIFSTYGKIKMIDMPVERMHPHLSKGYAYVEFENPDEAEKALKHMDGGQIDGQEITATAVLAPWPRPPPRRFSPPRRMLPPPPMWRRSPPRMRRRSRSPRRRSPVRRRSRSPGRRRHRSRSSSNSSR [RNPS1]
solubility change mitosis (log2) [1]: 0.52 | solubility in G1/S (log2) [2]: -0.501 | thermal stability score [3, 5]: 0.608 | thermal stability score ([3]; cell cycle stage: mitosis): 1.88 | melting temperature ([4]; cell cycle stage: G1/S): 48.9 °C | melting temperature ([4]; cell cycle stage: mitosis): 50 °C

MSMLKPSGLKAPTKILKPGSTALKTPTAVVAPVEKTISSEKASSTPSSETQEEFVDDFRVGERVWVNGNKPGFIQFLGETQFAPGQWAGIVLDEPIGKNDGSVAGVRYFQCEPLKGIFTRPSKLTRKVQAEDEANGLQTTPASRATSPLCTSTASMVSSSPSTPSNIPQKPSQPAAKEPSATPPISNLTKTASESISNLSEAGSIKKGERELKIGDRVLVGGTKAGVVRFLGETDFAKGEWCGVELDEPLGKNDGAVAGTRYFQCQPKYGLFAPVHKVTKIGFPSTTPAKAKANAVRRVMATTSASLKRSPSASSLSSMSSVASSVSSRPSRTGLLTETSSRYARKISGTTALQEALKEKQQHIEQLLAERDLERAEVAKATSHVGEIEQELALARDGHDQHVLELEAKMDQLRTMVEAADREKVELLNQLEEEKRKVEDLQFRVEEESITKGDLEQKSQISEDPENTQTKLEHARIKELEQSLLFEKTKADKLQRELEDTRVATVSEKSRIMELEKDLALRVQEVAELRRRLESNKPAGDVDMSLSLLQEISSLQEKLEVTRTDHQREITSLKEHFGAREETHQKEIKALYTATEKLSKENESLKSKLEHANKENSDVIALWKSKLETAIASHQQAMEELKVSFSKGLGTETAEFAELKTQIEKMRLDYQHEIENLQNQQDSERAAHAKEMEALRAKLMKVIKEKENSLEAIRSKLDKAEDQHLVEMEDTLNKLQEAEIKVKELEVLQAKCNEQTKVIDNFTSQLKATEEKLLDLDALRKASSEGKSEMKKLRQQLEAAEKQIKHLEIEKNAESSKASSITRELQGRELKLTNLQENLSEVSQVKETLEKELQILKEKFAEASEEAVSVQRSMQETVNKLHQKEEQFNMLSSDLEKLRENLADMEAKFREKDEREEQLIKAKEKLENDIAEIMKMSGDNSSQLTKMNDELRLKERDVEELQLKLTKANENASFLQKSIEDMTVKAEQSQQEAAKKHEEEKKELERKLSDLEKKMETSHNQCQELKARYERATSETKTKHEEILQNLQKTLLDTEDKLKGAREENSGLLQELEELRKQADKAKAAQTAEDAMQIMEQMTKEKTETLASLEDTKQTNAKLQNELDTLKENNLKNVEELNKSKELLTVENQKMEEFRKEIETLKQAAAQKSQQLSALQEENVKLAEELGRSRDEVTSHQKLEEERSVLNNQLLEMKKRESKFIKDADEEKASLQKSISITSALLTEKDAELEKLRNEVTVLRGENASAKSLHSVVQTLESDKVKLELKVKNLELQLKENKRQLSSSSGNTDTQADEDERAQESQIDFLNSVIVDLQRKNQDLKMKVEMMSEAALNGNGDDLNNYDSDDQEKQSKKKPRLFCDICDCFDLHDTEDCPTQAQMSEDPPHSTHHGSRGEERPYCEICEMFGHWATNCNDDETF [CLIP1]
solubility change mitosis (log2) [1]: -0.0152 | solubility in G1/S (log2) [2]: 0.37 | thermal stability score [3, 5]: -1.53 | thermal stability score ([3]; cell cycle stage: mitosis): -1.75 | melting temperature ([4]; cell cycle stage: G1/S): 54.7 °C | melting temperature ([4]; cell cycle stage: mitosis): 54.2 °C

MKKDVRILLVGEPRVGKTSLIMSLVSEEFPEEVPPRAEEITIPADVTPERVPTHIVDYSEAEQSDEQLHQEISQANVICIVYAVNNKHSIDKVTSRWIPLINERTDKDSRLPLILVGNKSDLVEYSSMETILPIMNQYTEIETCVECSAKNLKNISELFYYAQKAVLHPTGPLYCPEEKEMKPACIKALTRIFKISDQDNDGTLNDAELNFFQRICFNTPLAPQALEDVKNVVRKHISDGVADSGLTLKGFLFLHTLFIQRGRHETTWTVLRRFGYDDDLDLTPEYLFPLLKIPPDCTTELNHHAYLFLQSTFDKHDLDRDCALSPDELKDLFKVFPYIPWGPDVNNTVCTNERGWITYQGFLSQWTLTTYLDVQRCLEYLGYLGYSILTEQESQASAVTVTRDKKIDLQKKQTQRNVFRCNVIGVKNCGKSGVLQALLGRNLMRQKKIREDHKSYYAINTVYVYGQEKYLLLHDISESEFLTEAEIICDVVCLVYDVSNPKSFEYCARIFKQHFMDSRIPCLIVAAKSDLHEVKQEYSISPTDFCRKHKMPPPQAFTCNTADAPSKDIFVKLTTMAMYPHVTQADLKSSTFWLRASFGATVFAVLGFAMYKALLKQR [RHOT1]
solubility change mitosis (log2) [1]: -0.0628 | solubility in G1/S (log2) [2]: -0.379 | thermal stability score [3, 5]: -0.722 | thermal stability score ([3]; cell cycle stage: mitosis): -1.26 | melting temperature ([4]; cell cycle stage: G1/S): 52.8 °C | melting temperature ([4]; cell cycle stage: mitosis): 52.5 °C

IQGAP3
solubility change mitosis (log2) [1]: 0.191 | solubility in G1/S (log2) [2]: -0.395 | thermal stability score [3, 5]: 0.51 | thermal stability score ([3]; cell cycle stage: mitosis): 1.12 | melting temperature ([4]; cell cycle stage: G1/S): 47.8 °C | melting temperature ([4]; cell cycle stage: mitosis): 48.1 °C

MTTPALLPLSGRRIPPLNLGPPSFPHHRATLRLSEKFILLLILSAFITLCFGAFFFLPDSSKHKRFDLGLEDVLIPHVDAGKGAKNPGVFLIHGPDEHRHREEEERLRNKIRADHEKALEEAKEKLRKSREEIRAEIQTEKNKVVQEMKIKENKPLPPVPIPNLVGIRGGDPEDNDIREKREKIKEMMKHAWDNYRTYGWGHNELRPIARKGHSPNIFGSSQMGATIVDALDTLYIMGLHDEFLDGQRWIEDNLDFSVNSEVSVFEVNIRFIGGLLAAYYLSGEEIFKIKAVQLAEKLLPAFNTPTGIPWAMVNLKSGVGRNWGWASAGSSILAEFGTLHMEFIHLSYLTGDLTYYKKVMHIRKLLQKMDRPNGLYPNYLNPRTGRWGQYHTSVGGLGDSFYEYLLKAWLMSDKTDHEARKMYDDAIEAIEKHLIKKSRGGLTFIGEWKNGHLEKKMGHLACFAGGMFALGADGSRADKAGHYLELGAEIARTCHESYDRTALKLGPESFKFDGAVEAVAVRQAEKYYILRPEVIETYWYLWRFTHDPRYRQWGWEAALAIEKYCRVNGGFSGVKDVYSSTPTHDDVQQSFFLAETLKYLYLLFSGDDLLPLDHWVFNTEAHPLPVLHLANTTLSGNPAVR [MAN1A2]
solubility change mitosis (log2) [1]: -0.0976 | solubility in G1/S (log2) [2]: -0.0642 | thermal stability score [3, 5]: -0.726 | thermal stability score ([3]; cell cycle stage: mitosis): -1.7 | melting temperature ([4]; cell cycle stage: G1/S): 54.1 °C | melting temperature ([4]; cell cycle stage: mitosis): 54.3 °C

Reference: the supplement of paper PMC5998384
